Data published in the supplement of paper PMC10057847, “Precision engineering of biological function with large-scale measurements and machine learning” (PLOS ONE, 2023).
± gives the uncertainty stated by the source.

B1: library; the commonest letter at each place (parent)
chain: MKPVTLYDVAEYAGVSYQTVSRVVNQASHVSAKTREKVEAAMAELNYIPNRVAQQLAGKQSLLIGVATSSLALHAPSQIVAAIKSRADQLGASVVVSMVERSGVEACKAAVHNLLAQRVSGLIINYPLDDQDAIAVEAACTNVPALFLDVSDQTPINSIIFSHEDGTRLGVEHLVALGHQQIALLAGPLSSVSARLRLAGWHKYLTRNQIQPIAEREGDWSAMSGFQQTMQMLNEGIVPTAMLVANDQMALGAMRAITESGLRVGADISVVGYDDTEDSSCYIPPLTTIKQDFRLLGQTSVDRLLQLSQGQAVKGNQLLPVSLVKRKTTLAPNTQTASPRALADSLMQLARQVSRLESGQ

Assays:
Conditions in all cases: with IPTG
[1] = variants of: B1
Description: (§1)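 LacI variants on the pVER plasmid regulate eYFP behind lacO in E. coli MG1655Δlac, grown in rich M9 at 37 °C with a 2-fold IPTG dilution series. After two 160-min growth steps, YFP is read by flow cytometry and calibrated to MEF. Bayesian MCMC fits of the Hill equation give G0, G∞, EC50 and n (posterior mean ± SD).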

[2] = variants of: B1; test: Hill coefficient n (dimensionless); higher = steeper dose response
Description: as §1

[3] = variants of: B1; test: basal output G0 (YFP, no IPTG) (log10 MEF); higher = higher reporter expression without inducer
Description: as §1

[4] = variants of: B1; test: saturating output G-infinity (YFP) (log10 MEF); higher = higher reporter expression at saturating IPTG
Description: as §1

Variant | EC50 for IPTG (log10 µmol/L) [1] | Hill coefficient n [2] | basal output G0 (log10) [3] | saturating output G-infinity (log10) [4]
L296R | 4.37 ± 0.045 | 1.33 ± 0.051 | 2.995 ± 0.0098 | 4.383 ± 0.025
V94L V99I V104I L307F | 1.47 ± 0.02 | 1.56 ± 0.1 | 2.75 ± 0.26 | 4.204 ± 0.0067
V271M | 2.089 ± 0.0097 | 1.64 ± 0.034 | 2.19 ± 0.19 | 4.413 ± 0.0046
S93N V99E S102R L198Q S260F A337S | 0.634 ± 0.024 | 1.31 ± 0.088 | 3.834 ± 0.012 | 4.443 ± 0.0046
N208Y | 2.01 ± 0.0066 | 1.64 ± 0.026 | 2.24 ± 0.14 | 4.4021 ± 0.003
V99E A116T T141I S190C | 0.86 ± 0.015 | 1.33 ± 0.047 | 3.534 ± 0.013 | 4.454 ± 0.0039
G200C | 2.729 ± 0.016 | 1.58 ± 0.049 | 1.48 ± 0.68 | 4.489 ± 0.0069
F161L | 3.161 ± 0.0097 | 1.32 ± 0.022 | 1.83 ± 0.42 | 4.38 ± 0.0037
F161V | 2.58 ± 0.015 | 1.59 ± 0.044 | 1.98 ± 0.34 | 4.455 ± 0.0069
F161S | 1.12 ± 0.017 | 1.43 ± 0.047 | 3.04 ± 0.036 | 4.464 ± 0.0055
Y273H D278G Q335L E357G | 3.07 ± 0.09 | 1.62 ± 0.14 | 2.16 ± 0.11 | 4.07 ± 0.075
I160F L185F | 3.06 ± 0.056 | 1.77 ± 0.11 | 2.08 ± 0.16 | 4.19 ± 0.048
A109E D165V G166A R255C E259G | 0.842 ± 0.018 | 1.33 ± 0.06 | 3.421 ± 0.019 | 4.417 ± 0.0048
V136E | 1.69 ± 0.034 | 1.5 ± 0.13 | 2.46 ± 0.36 | 4.015 ± 0.014
V136E S279T | 0.991 ± 0.11 | 2.42 ± 0.69 | 3.916 ± 0.02 | 4.035 ± 0.0064
I160N R263S L305Q | 2.561 ± 0.022 | 1.61 ± 0.054 | 1.14 ± 0.59 | 4.285 ± 0.012
P285S V301M S308P M347V | 0.927 ± 0.019 | 1.33 ± 0.057 | 3.595 ± 0.017 | 4.489 ± 0.0054
L90Q L198M E235D T336S | 1.88 ± 0.022 | 1.61 ± 0.073 | 2.51 ± 0.2 | 4.423 ± 0.0091
Q181H | 2.037 ± 0.0042 | 1.625 ± 0.015 | 2.24 ± 0.049 | 4.4146 ± 0.0018
V95M Q335R Q360R | 2.01 ± 0.05 | 1.49 ± 0.13 | 2.02 ± 0.65 | 4.169 ± 0.022
S279T | 1.481 ± 0.012 | 1.48 ± 0.03 | 2.68 ± 0.034 | 4.458 ± 0.0048
G121V G261V | 1.847 ± 0.017 | 1.58 ± 0.052 | 2.58 ± 0.083 | 4.418 ± 0.0075
S97T V136E | 1.37 ± 0.038 | 1.42 ± 0.12 | 3.05 ± 0.078 | 4.331 ± 0.013
D88G | 2.671 ± 0.015 | 1.41 ± 0.046 | 0.914 ± 0.56 | 3.854 ± 0.0057
D88N | 2.843 ± 0.028 | 1.33 ± 0.086 | 0.96 ± 0.58 | 3.479 ± 0.0093
E100V T299I | 0.9867 ± 0.0075 | 1.54 ± 0.032 | 3.09 ± 0.037 | 4.4562 ± 0.0024
G103D H202Y P284T | 1.5 ± 0.016 | 1.64 ± 0.075 | 2.85 ± 0.11 | 4.458 ± 0.0062
